# Test results published in patent US10975360B2, “Process for the modification of alkanes, fatty acids and fatty alcohols” (priority 2016, dated 2021).
# B1: CYP505E3: self-sufficient cytochrome P450 monooxygenase from Aspergillus terreus, SEQ ID No 1 (protein, listed as Aspergillus terreus)
# chain: MIKETEQIPGPRPLPVVGNLFDMDLEHGLECLIRLADDFGPLFQITINGEKQIFATSQALVDELCDESRFHKAVMGGLEKLRMLASDGLFTAYHGERGWGIAHRILVPAFGPLRIRNMFEEMNDVAQQLCLKWARQGSSTSINITDDFTRLTLDTIALCTMNFRLNSFYNNETMHPFVKSMLYVLRESDIQSMLPGIANCIRVKARSRMSKHIQLMRNMARGIIQERRDQAEPVDDLLNTLLNGRDPVTGEGMSDDLIINNVITFLIAGHETTSGLLSFTFYYLLQNPHILERAQNEVDEVTGGERITVQHLGRLTYIDAILKESLRLMPTAPAFTVTPKKPEVLGGAWAIDAGQAVNVLLPVCLRDRSVFGPDADEFRPERMLEENFSKLPPNSWKPFGNGERSCIGRAFAWQEAQLVVAMVLQTFDLVPDDPSYKLRIKETLTIKPDGFRVRATLRRGQSATGLSQGSMSASGATSSVASPGPPAATGAQSNPAGGQRISFFYGSNSGTCKALAHRLASSLMGRGFTEQKLAALDTVVGNLPTDQPVIIVTTSYDGRPTDDAEEFVRWLESKRPVLQGVSYAVFGCGHHDWAKTFYRIPILIDDLMHKAGATRLTALGTANAAVSDLFSDLELWEETNLLPALREAFPPSNSSDVESSEPHQLQICVSKPRRVDMHRGLVEAKVTAVRTLTSPDSPEKRHVEFHVQGDTTWRPGDHVNILPVNPLSTVSRVLAYFQLAPDHSITVNSFNTQGLPSATPVSATELFSSFVELSQPATRKNLKALAMAAESKTDEQELIRLHDSYDALVRDKRVSVLDILERFPSISLPIGIFISMLPPLRLRTYSLSMAPSFKPSHGSLTFSVINEPAWSGNGQYLGVGSNYLASLTPGSLLYLSPRPAKDAFHLPADQFNTPIIMICAGSGLAPFMGFIQERMTWLKQGRPLAKGLLFFGCRGPHLDDLYYEELSEFEDAGVVEVHRAYSRAPDDVRAKGCRHVQHRLVTEAEAVRDHWGRNAIVYVCGSSNMARGVQTVLEEILGTLPPERYVAEIF
# Columns and labels:
# [1] = Whole cell biotransformation of dodecane by CYP505s expressed in P. pastoris; format: cell-based; details: whole cells of P. pastoris
# Method: Precultures of P. pastoris transformants were prepared in buffered complex glycerol media (BMGY). BMGY contained: 10 g/l yeast extract, 20 g/l peptone, 3.4 g/l yeast nitrogen base, 10 g/l ammonium sulfate, 100 mM potassium phosphate (pH 6), 0.4 mg/l biotin and 1% (v/v) glycerol. Erlenmeyer flasks (500 ml) containing 50 ml BMGY media were inoculated with single colonies of 24 h old YPD-agar cultures of P. pastoris KM71 mut^s3/CYP505E3 and incubated at 30° C. and 225 rpm for 24 h. The cultures were harvested using pre-weighed centrifuge tubes at 3000 g for 5 min and stored on ice until further use.
# The main cultures for expression were prepared in buffered complex methanol media (BMMY) containing 10 g/l yeast extract, 20 g/l peptone, 3.4 g/l yeast nitrogen base, 10 g/l ammonium sulfate, 100 mM potassium phosphate (pH 6), 0.4 mg/l biotin and 0.5 or 1% (v/v) methanol. Harvested cells from precultures were resuspended in BMMY media to final concentration of 1 g WC per 40 ml (appx. 25 g/l). The resuspended cultures (100 ml) were transferred to 500 ml Erlenmeyer flasks and incubated at 25° C. and 225 rpm for 24 h. The cultures were then harvested at 3000 g for 5 min using pre-weighed centrifuge tubes.
# Different transformants of Pichia pastoris KM71 harbouring the CYP505 genes for SEQ ID Nos 1 to 7 and 9 to 12 were grown and harvested as described above. The harvested cells were resuspended to give 1 g wet cell weight in 40 ml MOPS buffer (200 mM, 100 mM glucose, 100 mM glycerol, pH 8) and 1 ml aliquots of these cell suspensions were transferred to 40 ml amber vials. Dodecane, 1-dodecanol and 1-tetradecanol were added neat to these cell suspensions to give final concentrations of 200 mM in the case of the alcohols and 1 M in the case of dodecane while in the case of dodecanoic acid 20 μl of a 500 mM stock solution (in DMSO) was added to give a final concentration of 10 mM. Transformants harbouring the CYP505 genes for SEQ ID Nos 1 to 4 were tested for the biotransformation of 1-dodecanol, 1-tetradecanol, dodecanoic acid, tetradecanoic acid and dodecane, while those harbouring the CYP505 genes for SEQ ID Nos 5 to 7 and 9 to 12 were only tested for the biotransformation of 1-dodecanol and dodecanoic acid. The biotransformations were incubated at 25° C. and 225 rpm for 24 h. Extractions were performed using ethyl acetate (500 μl×2). The extracts were analyzed using GC/MS.
# [2] = Biotransformation of hexadecanoic acid using CFE of E. coli, Tris-HCl buffer; format: biochemical
# Method: (§1) Expression of genes in E. coli was performed by using ZYP-5052 auto-induction medium (Table 1) with in the case of the CYP 1 mM 5-aminolevulinic acid and 0.05 mM FeCl3 added. The CYP505E3 culture was cultivated using baffled flasks and incubated at 20° C. and 180 rpm for 24 h, while the GDH, and HLADH expressing cultures were all cultivated at 25° C. and 200 rpm for 24 h. Cultures were harvested through centrifugation (6 000×g, 10 min) and 1 g (wet weight) resuspended in 2 ml, 5 ml or 10 ml Tris-HCl, Phosphate or MOPS buffer, as indicated, (pH 8, 200 mM) containing 100 mM of glucose and glycerol. CFEs were obtained by a single passage of the suspended cells through a One Shot Cell Disrupter (Constant Systems) at 207 MPa. The soluble fraction was separated from unbroken cells by centrifugation (20 000×g, 20 min).
# (§2) The biotransformation reaction mixture (BRM) consisted of CYP and GDH CFE suspensions prepared from cells in Tris-HCl buffers (1 g wet weight in 2 ml buffer) mixed in a 1:1 ratio with 0.1 mM NADPH added. Dodecanoic acid, tetradecanoic acid, hexadecanoic acid, 1-tetradecanol and 1-hexadecanol (20 μl of a 255 mM stock solution in DMSO) were added to 40 ml amber glass vials containing 1 ml BRM to give final substrate concentrations of 5 mmol·LBRM^−1. These vials were placed on an orbital shaker at 20° C., 200 rpm, oscillation amplitude 26 mm. Vials were removed after 24 h for extraction. Biotransformations were stopped by adding 170 ul of 0.5M HCl, extracted with 2×500 μl EtOAc and subjected to GC-MS analysis. A sample of δ-dodecalactone in ethyl acetate (0.1 mM) was also methylated with TMSH and subjected to GC-MS analysis.
# [3] = Biotransformation of 1-tetradecanol using CFE of E. coli, Tris-HCl buffer; format: biochemical; details: 5 mmol/L substrate, CFE of E. coli, Tris-HCl, 24 h
# Method: as §1
# as §2, with “Vials were removed after 24 h for extraction. Biotransformations were stopped by adding 170 ul of 0.5M HCl, extracted with 2×500 μl EtOAc and subjected to GC-MS analysis. A sample of δ-dodecalactone in ethyl acetate (0.1 mM) was also methylated with TMSH and subjected to GC-MS analysis.” left out
# [4] = Biotransformation of hexadecane using CFE of E. coli expressing CYP505E3; format: biochemical
# Method: as §1
# (§3) Biotransformations of dodecane, tetradecane and hexadecane were carried using only CYP505E3 containing CFE prepared from an E. coli cell suspension (1 g wet weight in 10 ml buffer) in MOPS buffer (200 mM, pH 8) containing glucose and glycerol (100 mM each) as well as 0.1 mM NADPH. Alkane substrates (250 μL) were added to 1 mL BRM in 40 ml amber glass vials. These vials were placed on an orbital shaker at 20° C., 200 rpm, oscillation amplitude 26 mm and incubated for 24 h.
# [5] = Biotransformation of 1-hexadecanol using CFE of E. coli, Tris-HCl buffer; format: biochemical; details: 5 mmol/L substrate, 24 h
# Method: as §1
# as §2, with “Vials were removed after 24 h for extraction. Biotransformations were stopped by adding 170 ul of 0.5M HCl, extracted with 2×500 μl EtOAc and subjected to GC-MS analysis. A sample of δ-dodecalactone in ethyl acetate (0.1 mM) was also methylated with TMSH and subjected to GC-MS analysis.” left out
# [6] = format: biochemical, E. coli
# Method: as §1, §3
# [7] = Time course of biotransformation of 50 mM C12 fatty acid using CFE of E. coli in MOPS buffer; format: biochemical; details: 50 mM dodecanoic acid, 0.2 μM CYP
# Method: as §1, with “min). […]” for “min).”
# After extraction aliquots (50 μl) of ethyl acetate extracts containing both decanoic acid and tetradecanol as internal standards were methylated for GC-MS analysis while the rest of the extracts were washed with a Na2CO3 (5% w/v) solution to remove the fatty acids. The washed ethyl acetate extracts were also analysed by GC-MS and the δ-dodecalactone and γ-dodecalactone concentrations determined from a standard curve.
# [8] = whole cell biotransformations, E. coli; cited from earlier work
molecule,measurement,setting,value
B1,products produced from dodecane (GC-MS),"[1]; 1 M dodecane, 24 h",5-dodecanol
same,ω-7 hydroxylase activity C12alk,"[1]; C12 alkane, GC-MS peak height",+++ (+++ 1 million < RA < 10 million)
same,"products identified from hexadecanoic acid (GC-MS, methylated samples)","[2]; 5 mmol/L substrate, Tris-HCl, 24 h",9-hydroxy hexadecanoic acid
same,ω-7 hydroxylase activity C16FA,"[2]; C16 fatty acid, GC-MS peak height",++ (++ 0.1 million < RA < 1 million)
same,products detected from tetradecanol (GC-MS),[3],"1,7-tetradecane diol and 1,8-tetradecane diol"
same,ω-7 hydroxylase activity C16alk,"[4]; C16 alkane, GC-MS peak height",+ (+ − 0.01 million < RA < 0.1 million)
same,product from hexadecane (GC-MS),"[4]; MOPS buffer, 24 h",8-hexadecanol
same,products detected from hexadecanol (GC-MS),[5],did not allow detection of any products
same,product from dodecane (GC-MS),[6],5-dodecanol
same,product from tetradecane (GC-MS),[6],7-tetradecanol
same,lactone concentrations in the washed ethyl acetate samples,"[7]; Na2CO3 washed, not methylated",0.6 mmol·LBRM^−1
same,lactone concentrations in the unwashed samples,"[7]; unwashed, methylated",1.6 mmol·LBRM^−1
same,activity towards alkanes and alkylbenzens,[8],no detectable activity
